In article PMC8807725, “EPHA2 mediates PDGFA activity and functions together with PDGFRA as prognostic marker and therapeutic target in glioblastoma” (Signal Transduction and Targeted Therapy, 2022):

Target: T1, recombinant human PDGF-AA (human, UniProt P04085 87-211)
T1 construct: Platelet-derived growth factor subunit A (PDGFA), human, recombinant homodimer PDGF-AA; Added to cells at 100 ng/ml; Commercial PDGF-AA is normally the mature chain; also called recombinant human PDGFA homodimer; source: recombinant human protein
Test: ITC; Microcal iTC200; recombinant human receptor extracellular domain and recombinant human PDGF-AA
Details: both partners purified

B1: recombinant human PDGFRA extracellular domain fused with IgG Fc (rhRA-ECD-Fc) (Fc fusion, UniProt P16234 24-528, looked up)
chain: QLSLPSILPNENEKVVQLNSSFSLRCFGESEVSWQYPMSEEESSDVEIRNEENNSGLFVTVLEVSSASAAHTGLYTCYYNHTQTEENELEGRHIYIYVPDPDVAFVPLGMTDYLVIVEDDDSAIIPCRTTDPETPVTLHNSEGVVPASYDSRQGFNGTFTVGPYICEATVKGKKFQTIPFNVYALKATSELDLEMEALKTVYKSGETIVVTCAVFNNEVVDLQWTYPGEVKGKGITMLEEIKVPSIKLVYTLTVPEATVKDSGDYECAARQATREVKEMKKVTISVHEKGFIEIKPTFSQLEAVNLHEVKHFVVEVRAYPPPRISWLKNNLTLIENLTEITTDVEKIQEIRYRSKLKLIRAKEEDSGHYTIVAQNEDAVKSYTFELLTQVPSSILDLVDDHHGSTGGQTVRCTAEGTPLPDIEWMICKDIKKCNNETSWTILANNVSNIITEIHSRDRSTVEGRVTFAKVEETIAVRCLAKNLLGAENRELKLVAPTLRSELTVA
notes: Platelet-derived growth factor receptor alpha (PDGFRA), human, extracellular domain; Species and subclass of the IgG Fc, construct limits and supplier are not in the main text; also called recombinant PDGFRA extracellular domain; source: recombinant human protein
- dH: -1070 ± 117
